From the supplement of paper PMC9112550, “Optimization of the antimicrobial peptide Bac7 by deep mutational scanning” (BMC Biology, 2022) come the findings set out here.

This data set has as its system Escherichia coli TOP10. The data set is described as follows: shrunken log2 fold change of peptide-encoding DNA abundance (4.5 h post-induction vs induction); higher = less antimicrobial activity (less host growth inhibition). The settings on record: time post-induction: 4.5 h; library: site-saturation at positions 5, 18, 19, 20.
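Note: peptides expressed intracellularly from a pBAD plasmid library in pooled LB shake-flask culture, induced with 0.3% L-arabinose, DNA abundance read by NGS, three biological replicates, DESeq2 with apeglm shrinkage.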

As for RRIRQRPPRLPRPRPRPSCTPRP, the “shrunken log2 fold change” value was -0.167.
As for RRIRVRPPRLPRPRPRPNASPRP, the “shrunken log2 fold change” value came out at 0.147.
RRIRWRPPRLPRPRPRPYTMPRP: the “shrunken log2 fold change” value was -0.335.
For the sequence RRIRERPPRLPRPRPRPELIPRP, the “shrunken log2 fold change” value was determined as 0.0254.
As to RRIRIRPPRLPRPRPRPKWLPRP, the “shrunken log2 fold change” value worked out at 0.0546.
Regarding RRIRNRPPRLPRPRPRPRPKPRP, the “shrunken log2 fold change” value came out at 0.719.
In the case of RRIRWRPPRLPRPRPRPKLSPRP it was -0.0389.
As to RRIRERPPRLPRPRPRPFYSPRP, the “shrunken log2 fold change” value was -0.795.
In the case of RRIRFRPPRLPRPRPRPDWDPRP it was 0.124; in that of RRIRTRPPRLPRPRPRPDNCPRP, 0.00765.
Then RRIRVRPPRLPRPRPRPDIEPRP, with -0.0848; and RRIRSRPPRLPRPRPRPFWGPRP, with 0.176.
Consider RRIRNRPPRLPRPRPRPWKDPRP, for which the “shrunken log2 fold change” value is -0.00136.
As to RRIRARPPRLPRPRPRPPEFPRP, the “shrunken log2 fold change” value came out at 0.558.
RRIRSRPPRLPRPRPRPKVQPRP: the “shrunken log2 fold change” value was determined as 0.293.
Then RRIRIRPPRLPRPRPRPSQDPRP, with -0.31; and RRIRRRPPRLPRPRPRPCDGPRP, with 0.0965; and RRIRGRPPRLPRPRPRPWVQPRP, with 0.0601.
For the sequence RRIRLRPPRLPRPRPRPIIWPRP, the “shrunken log2 fold change” value was -0.000825.
In the case of RRIRMRPPRLPRPRPRPEQYPRP, the “shrunken log2 fold change” value came to 0.282.
In the case of RRIRDRPPRLPRPRPRPGLAPRP it was 0.565.
With RRIRSRPPRLPRPRPRPEKEPRP, the “shrunken log2 fold change” value came out at 0.00748.
As for RRIRLRPPRLPRPRPRPGMAPRP, the “shrunken log2 fold change” value was determined as 0.145.
With RRIRQRPPRLPRPRPRPCVVPRP, the “shrunken log2 fold change” value was found to be 0.0959.
In the case of RRIRNRPPRLPRPRPRPWKPPRP it was 0.0219; in that of RRIRFRPPRLPRPRPRPVAEPRP, 0.256; in that of RRIRNRPPRLPRPRPRPEQFPRP, -0.0122.
RRIRFRPPRLPRPRPRPKDAPRP: the “shrunken log2 fold change” value was determined as 0.141.
For RRIRSRPPRLPRPRPRPEPKPRP, the “shrunken log2 fold change” value was determined as 0.954.
For RRIRYRPPRLPRPRPRPVVCPRP, the “shrunken log2 fold change” value was -0.408.
Consider RRIRDRPPRLPRPRPRPFCPPRP, for which the “shrunken log2 fold change” value is -0.277.
As for RRIRWRPPRLPRPRPRPPQIPRP, the “shrunken log2 fold change” value worked out at 0.117.
Then RRIRARPPRLPRPRPRPQMLPRP, with 1.97; and RRIRFRPPRLPRPRPRPAFEPRP, with 0.226; and RRIRYRPPRLPRPRPRPNEIPRP, with -0.807.
For the sequence RRIRHRPPRLPRPRPRPLQLPRP, the “shrunken log2 fold change” value is -0.213.
As for RRIRLRPPRLPRPRPRPPRQPRP, the “shrunken log2 fold change” value stood at 0.688.
On to RRIRVRPPRLPRPRPRPNAEPRP, for which the “shrunken log2 fold change” value was determined as 0.0611.
Turning to RRIRTRPPRLPRPRPRPGAMPRP, the “shrunken log2 fold change” value came out at 0.144.
In the case of RRIRTRPPRLPRPRPRPVWHPRP, the “shrunken log2 fold change” value was 0.095.
In the case of RRIRARPPRLPRPRPRPICRPRP, the “shrunken log2 fold change” value was 0.349.
For the sequence RRIRNRPPRLPRPRPRPNKMPRP, the “shrunken log2 fold change” value was -0.0283.
RRIRDRPPRLPRPRPRPHLPPRP: the “shrunken log2 fold change” value is -0.0459.
As to RRIRVRPPRLPRPRPRPMYCPRP, the “shrunken log2 fold change” value is -0.233.
In the case of RRIRCRPPRLPRPRPRPLNPPRP it was -0.185; in that of RRIRERPPRLPRPRPRPRQDPRP, -0.0529.
Consider RRIRYRPPRLPRPRPRPRLFPRP, for which the “shrunken log2 fold change” value is -0.194.
Turning to RRIRDRPPRLPRPRPRPADIPRP, the “shrunken log2 fold change” value was -0.00114.
Turning to RRIRLRPPRLPRPRPRPVPVPRP, the “shrunken log2 fold change” value is -0.0404.
Regarding RRIRARPPRLPRPRPRPMCGPRP, the “shrunken log2 fold change” value was found to be 0.121.
As for RRIRHRPPRLPRPRPRPKCTPRP, the “shrunken log2 fold change” value was -0.0702.
Regarding RRIRCRPPRLPRPRPRPMWPPRP, the “shrunken log2 fold change” value was found to be 0.481.
In the case of RRIRIRPPRLPRPRPRPHVSPRP it was -0.0557; in that of RRIRWRPPRLPRPRPRPWWSPRP, 0.173.
RRIRYRPPRLPRPRPRPQTWPRP: the “shrunken log2 fold change” value was -0.573.
RRIRTRPPRLPRPRPRPYWVPRP: the “shrunken log2 fold change” value was -0.0888.
RRIRARPPRLPRPRPRPEFHPRP: the “shrunken log2 fold change” value was found to be 0.847.
With RRIRQRPPRLPRPRPRPSVAPRP, the “shrunken log2 fold change” value was -0.0735.
Take RRIRLRPPRLPRPRPRPKCCPRP: the “shrunken log2 fold change” value was -0.166.
For the sequence RRIRQRPPRLPRPRPRPSAIPRP, the “shrunken log2 fold change” value was -0.399.
For RRIRNRPPRLPRPRPRPHQFPRP, the “shrunken log2 fold change” value was -0.000243.
Consider RRIRIRPPRLPRPRPRPSEMPRP, for which the “shrunken log2 fold change” value was -0.553.
As for RRIRWRPPRLPRPRPRPHMMPRP, the “shrunken log2 fold change” value was -0.349.
As to RRIRFRPPRLPRPRPRPHNEPRP, the “shrunken log2 fold change” value is -0.626.
For the sequence RRIRVRPPRLPRPRPRPTWTPRP, the “shrunken log2 fold change” value came out at 0.221.
In the case of RRIRQRPPRLPRPRPRPLPKPRP it was -0.226.
Turning to RRIRARPPRLPRPRPRPLGEPRP, the “shrunken log2 fold change” value was found to be 0.896.
In the case of RRIRMRPPRLPRPRPRPNTMPRP, the “shrunken log2 fold change” value was determined as 0.0324.
Take RRIRDRPPRLPRPRPRPISQPRP: the “shrunken log2 fold change” value was 0.12.
For the sequence RRIRWRPPRLPRPRPRPGEQPRP, the “shrunken log2 fold change” value was 0.0722.
For the sequence RRIRHRPPRLPRPRPRPGQWPRP, the “shrunken log2 fold change” value was 0.318.
Then RRIRNRPPRLPRPRPRPIIKPRP, with -0.463; and RRIRMRPPRLPRPRPRPFQPPRP, with 0.0604.
Then RRIRQRPPRLPRPRPRPDQIPRP, with 0.00408; and RRIRQRPPRLPRPRPRPYWNPRP, with -1.21; and RRIRWRPPRLPRPRPRPDIFPRP, with -0.029.
On to RRIRYRPPRLPRPRPRPVIKPRP, for which the “shrunken log2 fold change” value was -0.585.
On to RRIRRRPPRLPRPRPRPGTYPRP, for which the “shrunken log2 fold change” value is -0.0906.
Regarding RRIRWRPPRLPRPRPRPIWMPRP, the “shrunken log2 fold change” value is -0.000467.
Turning to RRIRHRPPRLPRPRPRPFVNPRP, the “shrunken log2 fold change” value was -0.124.
Take RRIRCRPPRLPRPRPRPHEQPRP: the “shrunken log2 fold change” value was -0.15.
As for RRIRGRPPRLPRPRPRPIVPPRP, the “shrunken log2 fold change” value is 0.02.
Then RRIRFRPPRLPRPRPRPHAVPRP, with -0.0464; and RRIRSRPPRLPRPRPRPTKFPRP, with 0.0549; and RRIRARPPRLPRPRPRPPCAPRP, with 0.598.
As for RRIRRRPPRLPRPRPRPYWSPRP, the “shrunken log2 fold change” value is -0.353.
With RRIRTRPPRLPRPRPRPAWEPRP, the “shrunken log2 fold change” value worked out at 0.174.
Then RRIRNRPPRLPRPRPRPLGCPRP, with -0.27; and RRIRERPPRLPRPRPRPDRPPRP, with -0.165.
In the case of RRIRERPPRLPRPRPRPTVGPRP it was -0.116.
In the case of RRIRKRPPRLPRPRPRPNDAPRP, the “shrunken log2 fold change” value was 0.0832.
